Source: the supplement of paper PMC9112550, “Optimization of the antimicrobial peptide Bac7 by deep mutational scanning” (BMC Biology, 2022)

Tested on: Escherichia coli TOP10
Assay: shrunken log2 fold change of peptide-encoding DNA abundance (4.5 h post-induction vs induction); higher = less antimicrobial activity (less host growth inhibition)
Conditions: time post-induction: 4.5 h; library: site-saturation at positions 5, 18, 19, 20
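Note: peptides expressed intracellularly from a pBAD plasmid library in pooled LB shake-flask culture, induced with 0.3% L-arabinose, DNA abundance read by NGS, three biological replicates, DESeq2 with apeglm shrinkage.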

RRIRVRPPRLPRPRPRPAQPPRP
shrunken log2 fold change: 0.228

RRIRVRPPRLPRPRPRPARAPRP
shrunken log2 fold change: 0.566

RRIRVRPPRLPRPRPRPARCPRP
shrunken log2 fold change: 0.205

RRIRVRPPRLPRPRPRPARSPRP
shrunken log2 fold change: -0.024

RRIRVRPPRLPRPRPRPARWPRP
shrunken log2 fold change: 0.586

RRIRVRPPRLPRPRPRPAWQPRP
shrunken log2 fold change: -0.00433

RRIRVRPPRLPRPRPRPAWYPRP
shrunken log2 fold change: 0.0171

RRIRVRPPRLPRPRPRPCANPRP
shrunken log2 fold change: -0.129

RRIRVRPPRLPRPRPRPCCTPRP
shrunken log2 fold change: -0.247

RRIRVRPPRLPRPRPRPCEGPRP
shrunken log2 fold change: -0.0149

RRIRVRPPRLPRPRPRPCFGPRP
shrunken log2 fold change: -0.263

RRIRVRPPRLPRPRPRPCFMPRP
shrunken log2 fold change: -0.302

RRIRVRPPRLPRPRPRPCGYPRP
shrunken log2 fold change: 0.0222

RRIRVRPPRLPRPRPRPCLMPRP
shrunken log2 fold change: -0.178

RRIRVRPPRLPRPRPRPCNAPRP
shrunken log2 fold change: -0.184

RRIRVRPPRLPRPRPRPCNPPRP
shrunken log2 fold change: -0.182

RRIRVRPPRLPRPRPRPCNQPRP
shrunken log2 fold change: 0.0169

RRIRVRPPRLPRPRPRPCNWPRP
shrunken log2 fold change: -0.327

RRIRVRPPRLPRPRPRPCREPRP
shrunken log2 fold change: -0.0897

RRIRVRPPRLPRPRPRPCRNPRP
shrunken log2 fold change: -0.0211

RRIRVRPPRLPRPRPRPCSNPRP
shrunken log2 fold change: -0.411

RRIRVRPPRLPRPRPRPCVEPRP
shrunken log2 fold change: 0.0543

RRIRVRPPRLPRPRPRPCWCPRP
shrunken log2 fold change: 0.0389

RRIRVRPPRLPRPRPRPCWGPRP
shrunken log2 fold change: -0.0908

RRIRVRPPRLPRPRPRPCWQPRP
shrunken log2 fold change: -0.0523

RRIRVRPPRLPRPRPRPCWWPRP
shrunken log2 fold change: 0.297

RRIRVRPPRLPRPRPRPCYRPRP
shrunken log2 fold change: -0.00925

RRIRVRPPRLPRPRPRPDAEPRP
shrunken log2 fold change: 0.431

RRIRVRPPRLPRPRPRPDALPRP
shrunken log2 fold change: -0.0285

RRIRVRPPRLPRPRPRPDFYPRP
shrunken log2 fold change: -0.25

RRIRVRPPRLPRPRPRPDHDPRP
shrunken log2 fold change: -0.485

RRIRVRPPRLPRPRPRPDHSPRP
shrunken log2 fold change: -0.252

RRIRVRPPRLPRPRPRPDIMPRP
shrunken log2 fold change: -0.18

RRIRVRPPRLPRPRPRPDITPRP
shrunken log2 fold change: -0.305

RRIRVRPPRLPRPRPRPDKAPRP
shrunken log2 fold change: -0.0129

RRIRVRPPRLPRPRPRPDKNPRP
shrunken log2 fold change: -0.12

RRIRVRPPRLPRPRPRPDLHPRP
shrunken log2 fold change: -0.0023

RRIRVRPPRLPRPRPRPDMAPRP
shrunken log2 fold change: 0.00912

RRIRVRPPRLPRPRPRPDMIPRP
shrunken log2 fold change: -0.0118

RRIRVRPPRLPRPRPRPDMPPRP
shrunken log2 fold change: -0.264

RRIRVRPPRLPRPRPRPDMWPRP
shrunken log2 fold change: -0.499

RRIRVRPPRLPRPRPRPDNAPRP
shrunken log2 fold change: -0.501

RRIRVRPPRLPRPRPRPDPFPRP
shrunken log2 fold change: 0.0836

RRIRVRPPRLPRPRPRPDQPPRP
shrunken log2 fold change: 0.166

RRIRVRPPRLPRPRPRPDTIPRP
shrunken log2 fold change: -0.00658

RRIRVRPPRLPRPRPRPDTVPRP
shrunken log2 fold change: -0.186

RRIRVRPPRLPRPRPRPDTWPRP
shrunken log2 fold change: -0.407

RRIRVRPPRLPRPRPRPDVTPRP
shrunken log2 fold change: -0.0394

RRIRVRPPRLPRPRPRPDVVPRP
shrunken log2 fold change: -0.36

RRIRVRPPRLPRPRPRPDWCPRP
shrunken log2 fold change: 0.0302

RRIRVRPPRLPRPRPRPDWGPRP
shrunken log2 fold change: 0.184

RRIRVRPPRLPRPRPRPDWMPRP
shrunken log2 fold change: -0.0942

RRIRVRPPRLPRPRPRPDWWPRP
shrunken log2 fold change: -0.0161

RRIRVRPPRLPRPRPRPDYSPRP
shrunken log2 fold change: -0.107

RRIRVRPPRLPRPRPRPDYYPRP
shrunken log2 fold change: -0.679

RRIRVRPPRLPRPRPRPEAFPRP
shrunken log2 fold change: 0.143

RRIRVRPPRLPRPRPRPEAHPRP
shrunken log2 fold change: 0.0146

RRIRVRPPRLPRPRPRPEAWPRP
shrunken log2 fold change: 0.181

RRIRVRPPRLPRPRPRPEAYPRP
shrunken log2 fold change: -0.0262

RRIRVRPPRLPRPRPRPECDPRP
shrunken log2 fold change: 0.247

RRIRVRPPRLPRPRPRPEDWPRP
shrunken log2 fold change: 0.354

RRIRVRPPRLPRPRPRPEEGPRP
shrunken log2 fold change: -0.01

RRIRVRPPRLPRPRPRPEFWPRP
shrunken log2 fold change: 0.439

RRIRVRPPRLPRPRPRPEGCPRP
shrunken log2 fold change: 0.132

RRIRVRPPRLPRPRPRPEIDPRP
shrunken log2 fold change: 0.135

RRIRVRPPRLPRPRPRPEKGPRP
shrunken log2 fold change: -0.09

RRIRVRPPRLPRPRPRPELHPRP
shrunken log2 fold change: 0.133

RRIRVRPPRLPRPRPRPELIPRP
shrunken log2 fold change: 0.0562

RRIRVRPPRLPRPRPRPEMHPRP
shrunken log2 fold change: 0.209

RRIRVRPPRLPRPRPRPEMPPRP
shrunken log2 fold change: 0.0341

RRIRVRPPRLPRPRPRPENLPRP
shrunken log2 fold change: -0.111

RRIRVRPPRLPRPRPRPEPFPRP
shrunken log2 fold change: 0.0811

RRIRVRPPRLPRPRPRPEPTPRP
shrunken log2 fold change: 0.0442

RRIRVRPPRLPRPRPRPERGPRP
shrunken log2 fold change: 0.416

RRIRVRPPRLPRPRPRPESRPRP
shrunken log2 fold change: -0.0259

RRIRVRPPRLPRPRPRPETRPRP
shrunken log2 fold change: 0.577

RRIRVRPPRLPRPRPRPETWPRP
shrunken log2 fold change: 0.0351

RRIRVRPPRLPRPRPRPEYNPRP
shrunken log2 fold change: -0.185

RRIRVRPPRLPRPRPRPEYVPRP
shrunken log2 fold change: -0.153

RRIRVRPPRLPRPRPRPFAEPRP
shrunken log2 fold change: 0.171

RRIRVRPPRLPRPRPRPFCTPRP
shrunken log2 fold change: -0.389

RRIRVRPPRLPRPRPRPFDKPRP
shrunken log2 fold change: -0.0577

RRIRVRPPRLPRPRPRPFDLPRP
shrunken log2 fold change: -0.24

RRIRVRPPRLPRPRPRPFENPRP
shrunken log2 fold change: -0.0486

RRIRVRPPRLPRPRPRPFESPRP
shrunken log2 fold change: -0.0298

RRIRVRPPRLPRPRPRPFFPPRP
shrunken log2 fold change: -0.0751

RRIRVRPPRLPRPRPRPFHIPRP
shrunken log2 fold change: -0.527

RRIRVRPPRLPRPRPRPFHWPRP
shrunken log2 fold change: -0.0122

RRIRVRPPRLPRPRPRPFLRPRP
shrunken log2 fold change: -0.563

RRIRVRPPRLPRPRPRPFMFPRP
shrunken log2 fold change: -0.433

RRIRVRPPRLPRPRPRPFMIPRP
shrunken log2 fold change: -0.256

RRIRVRPPRLPRPRPRPFMVPRP
shrunken log2 fold change: -0.43

RRIRVRPPRLPRPRPRPFNHPRP
shrunken log2 fold change: -0.106

RRIRVRPPRLPRPRPRPFNPPRP
shrunken log2 fold change: -0.484

RRIRVRPPRLPRPRPRPFPEPRP
shrunken log2 fold change: -0.24

RRIRVRPPRLPRPRPRPFQSPRP
shrunken log2 fold change: -0.00568

RRIRVRPPRLPRPRPRPFRAPRP
shrunken log2 fold change: -0.0855

RRIRVRPPRLPRPRPRPFRNPRP
shrunken log2 fold change: -0.0529

RRIRVRPPRLPRPRPRPFRSPRP
shrunken log2 fold change: -0.267

RRIRVRPPRLPRPRPRPFWPPRP
shrunken log2 fold change: 0.162

RRIRVRPPRLPRPRPRPGEEPRP
shrunken log2 fold change: 0.00621

RRIRVRPPRLPRPRPRPGGQPRP
shrunken log2 fold change: -0.0141

RRIRVRPPRLPRPRPRPGHHPRP
shrunken log2 fold change: 0.00137

RRIRVRPPRLPRPRPRPGIFPRP
shrunken log2 fold change: -0.0463

RRIRVRPPRLPRPRPRPGIIPRP
shrunken log2 fold change: 0.136

RRIRVRPPRLPRPRPRPGINPRP
shrunken log2 fold change: -0.0188

RRIRVRPPRLPRPRPRPGLCPRP
shrunken log2 fold change: 0.0795

RRIRVRPPRLPRPRPRPGLQPRP
shrunken log2 fold change: 0.478

RRIRVRPPRLPRPRPRPGMEPRP
shrunken log2 fold change: 0.232

RRIRVRPPRLPRPRPRPGNPPRP
shrunken log2 fold change: -0.104

RRIRVRPPRLPRPRPRPGPAPRP
shrunken log2 fold change: 0.407

RRIRVRPPRLPRPRPRPGQAPRP
shrunken log2 fold change: -0.0106

RRIRVRPPRLPRPRPRPGQIPRP
shrunken log2 fold change: -0.0586

RRIRVRPPRLPRPRPRPGQKPRP
shrunken log2 fold change: 0.00253

RRIRVRPPRLPRPRPRPGSWPRP
shrunken log2 fold change: 0.463

RRIRVRPPRLPRPRPRPGTDPRP
shrunken log2 fold change: -0.117

RRIRVRPPRLPRPRPRPGTEPRP
shrunken log2 fold change: 0.0578

RRIRVRPPRLPRPRPRPGTPPRP
shrunken log2 fold change: -0.00585

RRIRVRPPRLPRPRPRPGVEPRP
shrunken log2 fold change: 0.243

RRIRVRPPRLPRPRPRPGWCPRP
shrunken log2 fold change: 0.146

RRIRVRPPRLPRPRPRPGYMPRP
shrunken log2 fold change: -0.37

RRIRVRPPRLPRPRPRPGYVPRP
shrunken log2 fold change: -0.351

RRIRVRPPRLPRPRPRPHAIPRP
shrunken log2 fold change: -0.0728

RRIRVRPPRLPRPRPRPHAKPRP
shrunken log2 fold change: 0.0066

RRIRVRPPRLPRPRPRPHAWPRP
shrunken log2 fold change: 0.0267

RRIRVRPPRLPRPRPRPHCGPRP
shrunken log2 fold change: -0.309

RRIRVRPPRLPRPRPRPHCSPRP
shrunken log2 fold change: -0.0738

RRIRVRPPRLPRPRPRPHDHPRP
shrunken log2 fold change: -0.244

RRIRVRPPRLPRPRPRPHDTPRP
shrunken log2 fold change: -0.212

RRIRVRPPRLPRPRPRPHECPRP
shrunken log2 fold change: -0.0944

RRIRVRPPRLPRPRPRPHGLPRP
shrunken log2 fold change: 0.0861

RRIRVRPPRLPRPRPRPHGPPRP
shrunken log2 fold change: -0.156

RRIRVRPPRLPRPRPRPHHHPRP
shrunken log2 fold change: -0.611

RRIRVRPPRLPRPRPRPHIFPRP
shrunken log2 fold change: -0.547

RRIRVRPPRLPRPRPRPHILPRP
shrunken log2 fold change: -0.234

RRIRVRPPRLPRPRPRPHKGPRP
shrunken log2 fold change: -0.0569

RRIRVRPPRLPRPRPRPHKVPRP
shrunken log2 fold change: -0.331

RRIRVRPPRLPRPRPRPHMGPRP
shrunken log2 fold change: -0.302

RRIRVRPPRLPRPRPRPHPNPRP
shrunken log2 fold change: -0.00326

RRIRVRPPRLPRPRPRPHQGPRP
shrunken log2 fold change: 0.105

RRIRVRPPRLPRPRPRPHSTPRP
shrunken log2 fold change: -0.418

RRIRVRPPRLPRPRPRPHVLPRP
shrunken log2 fold change: -0.067

RRIRVRPPRLPRPRPRPHVRPRP
shrunken log2 fold change: -0.0188

RRIRVRPPRLPRPRPRPHVSPRP
shrunken log2 fold change: 0.108

RRIRVRPPRLPRPRPRPHWNPRP
shrunken log2 fold change: -0.343

RRIRVRPPRLPRPRPRPHYFPRP
shrunken log2 fold change: -0.00578

RRIRVRPPRLPRPRPRPHYLPRP
shrunken log2 fold change: 0.00696

RRIRVRPPRLPRPRPRPIAMPRP
shrunken log2 fold change: -0.0565

RRIRVRPPRLPRPRPRPIARPRP
shrunken log2 fold change: 0.0436

RRIRVRPPRLPRPRPRPICKPRP
shrunken log2 fold change: -0.149
